In article PMC13598120 one finds response (PLA dots per cell) data, which are given here for one substance.

The target of this assay is GNL3, endogenous (UniProt Q9BVP2). Briefly: PLA (α-Flag + α-GNL3). Conditions: U2OS cells, 2 h, read off a plot.
GNL3, endogenous, sequence (Q9BVP2 whole entry): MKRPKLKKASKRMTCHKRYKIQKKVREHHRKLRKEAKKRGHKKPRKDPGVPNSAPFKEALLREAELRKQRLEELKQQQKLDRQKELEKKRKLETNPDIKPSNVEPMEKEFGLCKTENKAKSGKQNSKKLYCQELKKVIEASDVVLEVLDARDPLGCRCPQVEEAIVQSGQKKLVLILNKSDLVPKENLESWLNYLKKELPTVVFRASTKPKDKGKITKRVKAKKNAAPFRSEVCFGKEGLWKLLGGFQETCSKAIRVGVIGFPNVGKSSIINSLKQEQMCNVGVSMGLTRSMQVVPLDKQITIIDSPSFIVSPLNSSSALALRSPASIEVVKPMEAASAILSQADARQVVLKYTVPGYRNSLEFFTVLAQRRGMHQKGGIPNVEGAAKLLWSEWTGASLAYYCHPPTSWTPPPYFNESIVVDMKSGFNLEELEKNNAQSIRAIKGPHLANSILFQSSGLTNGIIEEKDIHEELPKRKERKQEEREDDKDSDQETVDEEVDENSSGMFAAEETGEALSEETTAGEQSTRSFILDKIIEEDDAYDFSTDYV

With “Flag-BLM, wild type (from UniProt P54132) SIMdm (both SIMs, 217QIDL220 and 235VICI238, mutated; substitutions not printed)”, the response (PLA dots per cell) (20 μM ETO, parent: est. 54) turned out to be 28 and the response (PLA dots per cell) (DMSO (control), parent: est. 16) turned out to be 11.
